From publication PMC9974061 come the findings set out here.

Assay [1] addresses TSG101, His-tagged recombinant (UniProt Q99816). Nature of the assay: BLI; Octet RED96; biotinylated ALIX (1 ug/ml), TSG101 (0.5 ug/ml) or gal-3 (1 ug/ml) on streptavidin biosensors; two-fold dilutions of S (280-70 uM) and P domain (144-36 uM); 20 mM HEPES, 150 mM NaCl, 0.005% Tween 20, 2 mg/ml BSA, pH 7.8; 2:1 model.
Assay [2] concerns the target apoptosis-linked gene 2-interacting protein X (ALIX), His-tagged recombinant (UniProt Q8WUM4). Described as above.
Assay [3] has as its target galectin-3 (gal-3), recombinant (UniProt P17931).

Sequence of TSG101, His-tagged recombinant (Q99816 whole entry): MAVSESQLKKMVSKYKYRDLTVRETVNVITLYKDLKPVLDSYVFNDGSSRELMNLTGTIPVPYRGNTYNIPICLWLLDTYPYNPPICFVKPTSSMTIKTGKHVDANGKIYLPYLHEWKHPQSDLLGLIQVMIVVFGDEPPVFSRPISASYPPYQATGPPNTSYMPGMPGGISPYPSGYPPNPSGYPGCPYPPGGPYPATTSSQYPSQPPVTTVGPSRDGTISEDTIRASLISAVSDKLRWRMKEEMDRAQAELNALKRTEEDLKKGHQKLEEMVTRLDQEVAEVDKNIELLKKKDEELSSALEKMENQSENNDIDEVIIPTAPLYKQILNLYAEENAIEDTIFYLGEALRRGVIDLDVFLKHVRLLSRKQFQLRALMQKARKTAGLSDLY
Sequence of galectin-3 (gal-3), recombinant (P17931 whole entry): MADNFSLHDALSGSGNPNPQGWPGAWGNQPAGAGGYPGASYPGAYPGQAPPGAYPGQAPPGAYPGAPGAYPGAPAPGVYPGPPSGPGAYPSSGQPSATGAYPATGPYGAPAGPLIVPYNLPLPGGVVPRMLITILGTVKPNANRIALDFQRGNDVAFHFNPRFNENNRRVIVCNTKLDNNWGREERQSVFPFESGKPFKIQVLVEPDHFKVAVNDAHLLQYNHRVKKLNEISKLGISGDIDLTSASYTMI
Sequence of apoptosis-linked gene 2-interacting protein X (ALIX), His-tagged recombinant (Q8WUM4 whole entry): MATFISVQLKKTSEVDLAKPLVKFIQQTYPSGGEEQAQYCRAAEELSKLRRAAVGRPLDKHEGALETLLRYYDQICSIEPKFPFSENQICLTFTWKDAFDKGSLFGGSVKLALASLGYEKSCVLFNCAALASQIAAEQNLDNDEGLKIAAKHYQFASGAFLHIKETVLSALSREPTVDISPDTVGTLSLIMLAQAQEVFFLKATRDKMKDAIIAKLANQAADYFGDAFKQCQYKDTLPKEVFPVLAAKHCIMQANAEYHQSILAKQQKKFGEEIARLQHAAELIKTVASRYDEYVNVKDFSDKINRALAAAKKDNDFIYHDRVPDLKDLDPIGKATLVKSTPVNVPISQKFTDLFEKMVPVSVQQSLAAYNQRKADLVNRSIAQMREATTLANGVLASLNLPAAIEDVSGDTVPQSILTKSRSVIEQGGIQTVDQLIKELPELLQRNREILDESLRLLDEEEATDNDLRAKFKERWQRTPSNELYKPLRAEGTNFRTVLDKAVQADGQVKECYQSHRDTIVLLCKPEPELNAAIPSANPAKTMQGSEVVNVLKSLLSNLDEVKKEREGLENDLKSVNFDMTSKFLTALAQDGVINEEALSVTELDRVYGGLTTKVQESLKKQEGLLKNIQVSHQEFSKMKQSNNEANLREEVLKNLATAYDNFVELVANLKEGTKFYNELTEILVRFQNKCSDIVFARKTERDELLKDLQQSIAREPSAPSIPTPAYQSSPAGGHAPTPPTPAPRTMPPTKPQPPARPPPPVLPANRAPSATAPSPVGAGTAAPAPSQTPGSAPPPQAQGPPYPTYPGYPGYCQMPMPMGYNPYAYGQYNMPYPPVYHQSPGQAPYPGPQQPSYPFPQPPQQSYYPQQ

Regarding “GII.4 capsid Shell (S) domain (domain or fragment)”, the Kd in assay [1] was 21.5 µM; in assay [2], 9.92 µM.
“GII.4 Sydney/2012 virus-like particles (complex)”: the GII.4 virus (stool isolate) replication in J2 HIEs at 24 h in the presence of anti-gal-3 antibody in assay [3] was 98 % reduction.

The Kd is a measure of binding affinity in units of concentration.
